B1: monalizumab (antibody, chains of the INN, looked up, V domains shown)
VH: QVQLVQSGAEVKKPGASVKVSCKASGYTFTSYWMNWVRQAPGQGLEWMGRIDPYDSETHYAQKLQGRVTMTTDTSTSTAYMELRSLRSDDTAVYYCARGGYDFDVGTLYWFFDVWGQGTTVTVSS
VL: DIQMTQSPSSLSASVGDRVTITCRASENIYSYLAWYQQKPGKAPKLLIYNAKTLAEGVPSRFSGSGSGTDFTLTISSLQPEDFATYYCQHHYGTPRTFGGGTKVEIK

Tests used:
[1] = test system: DU145; test: Flow cytometry of HLA-E surface expression on non-AR-transduced DU145; type: cell-based
Excerpt: (§1) To evaluate the modulation of the androgen receptor and tumor HLA-E expression, we astably transduced AR negative cell lines PC3 and DU145 with an Androgen Response Element (ARE) GFP reporter (FIG. 16H). […] Using AR+ constructed cell lines, PC3 and DU145, we sought to determine the dependence of HLA-E expression and possible modulation by AR. […] Although potential therapies targeting immune enhancement are being explored, the expression of exhaustion markers such as PD-1, NKG2A, and potential engaging ligands that diminish their cytotoxic function limits their application. Exploring these factors with new combination approaches, such as ARi and anti-NKG2A, and understanding the modulation of its targets upon treatment is key in overcoming immune-resistant scenarios, especially in prostate cancer.
PCa cells were plated at a density of 3×10^5 cells per well of a 6-well plate and adhered overnight. […] After treatment, cells were trypsinized, stained, and incubated (Cell Staining Buffer SouthernBiotech #0225-01S) with the corresponding antibody for 45-60 min at 4° C. Viability dye was added with each run. NK-92 cells and patient-derived cells were stained similarly. […]

[2] = test system: PC3 cell line; test: Flow cytometry of HLA-E surface expression on AR-negative PC3; type: cell-based; conditions: for surface expression of HLA-E: PC3, DHT 30 nM, vorinostat 0.3 μM, panobinostat 3 nM, 48 h
Excerpt: as §1
Experiments were conducted with noncytotoxic doses of vorinostat (0.3 μM) and panobinostat (3 nM).
(§2) PCa cells were plated at a density of 3×10^5 cells per well of a 6-well plate and adhered overnight. […] After treatment, cells were trypsinized, stained, and incubated (Cell Staining Buffer SouthernBiotech #0225-01S) with the corresponding antibody for 45-60 min at 4° C. Viability dye was added with each run. NK-92 cells and patient-derived cells were stained similarly. Markers used for experiments included: Thermofisher HLA-E Monoclonal Antibody (3D12HLA-E), Alexa Fluor™ 488, eBioscience™, CD274 (PD-L1, B7-H1) Monoclonal Antibody (MIH1), eFluor™ 450, eBioscience™, Cell Signaling PD-1 (D4W2J) XPR Rabbit mAb, SYTOX™ Orange Dead Cell Stain, for flow cytometry, BioLegend APC anti-human CD159a (NKG2A) Antibody #375108, BioLegend APC anti-human CD69 Antibody #310909, BioLegend Alexa Fluor® 647 anti-human CD137 (4-1BB) [4B4-1] #309823. For staining of the patient-derived PBMCs and subsequent NK cell characterization, the following antibodies were used: BioLegend Anti-Perforin Mouse Monoclonal Antibody (PerCP Cy5.50, clone: dG9) #308113, BioLegend Anti-Granzyme B Mouse Monoclonal Antibody (FITC, clone: GB11) #515403, BioLegend Anti-CD56 Mouse Monoclonal Antibody (Alexa Fluor® 700, clone: 5.1H1) #362521, and BioLegend (PE anti-human CD45 Antibody) #304008.

[3] = test system: NK cells; test: Flow cytometry of NKG2A and PD-1 surface expression on NK cells; type: cell-based
Procedure: as §2
Methods: PCa cell lines (LNCaP, 22Rv1 [ARv7 mutation], DU145[AR-], PC3 [AR-]) were cocultured with NK-92 cells and treated with ARi (enzalutamide [enza] and darolutamide [daro]) or in combination with anti-NKG2A antibody monalizumab. Immune cell-mediated tumor cell killing assays and multiplexed cytokine profiling were performed. NKc expression of NKG2A and PCa cells expression of HLA-E were investigated by flow cytometry. The AR-negative cell lines (PC3 and DU145) were stably transduced with a functional AR pathway to evaluate the modulation of HLA-E by AR. The activation status of peripheral blood NKc isolated from patients with PCa before and post-initiation of androgen deprivation therapy (ADT) was investigated by flow cytometry.

[4] = test system: LNCaP cells; test: Flow cytometry of HLA-E / PD-L1 surface expression on LNCaP; type: cell-based; conditions: LNCaP, DHT 30 nM, vorinostat 0.3 μM, panobinostat 3 nM, 48 h
Procedure: The effect of ARi on the NKG2A ligand, HLA-E, was investigated by flow cytometry on PCa cells treated with enza and daro.
as §2
The effect of androgen pathway inhibitors in the expression of HLA-E, a negative and key negative modulator of NK cell function, was also performed using Flow Cytometry. PD-L1 expression levels were also measured. In advance, The NK cell immune checkpoint inhibitor monalizumab (targeting NKG2A and its ligand, HLA-E) was also combined with ARi.

[5] = test system: LNCaP; test: Co-culture of LNCaP with NK-92 cells, immune-mediated tumor cell killing; type: cell-based; conditions: LNCaP + NK-92 1:1, enzalutamide 10 μM, FIG. 15A
Procedure: (§3) They were co-treated with enzalutamide ([…]) or darolutamide (20 μM) for 48 h. Doses of AR inhibitors (ARi) used in the co-culture experiments were based on previous IC50 experiments. […] The immune-mediated effect of NK-92 on the PCa cell lines in the presence of enzalutamide (immune enhancement death) was normalized to baseline immune and tumor cell killing in each condition [(tumor cells+immune cells)-tumor baseline death=baseline immune death]. […] Cytokine analysis was performed to investigate the activation phenotype of NK cells when treated with ARi.
(§4) Prostate cancer cell lines were dyed with the blue CMAC live-cell dye (Thermo Fisher Scientific #C2110, per manufacturer protocol). Blue-fluorescent cancer cells were plated at a density of 10,000 cells per well of a 48-well plate. NK-92 cells were dyed with green CMFDA (Cayman Chemical Company #19583, per manufacturer protocol). Green-fluorescent NK-92 cells were added to the blue-fluorescent cancer cells at a 1:1 ratio. Enzalutamide (10 μM), darolutamide (20 μM), and 1 μM ethidium homodimer (EthD-1) were added at the same time as the NK cells. After 24 hours of co-culture, images of live cancer cells, live NK cells, and dead cells were taken using a fluorescent microscope. The co-culture experiments were run with internal control conditions and as a single treatment. Normalization was performed after analysis to take baseline death conditions into each experiment run. […] Cell adhered over 24 h, and when patient-derived NK cells were added, a control well was trypsinized, and cells resuspended and counted to adjust a 1:1 ratio before treatment addition. […]
(§5) Live cancer cells, NK cells, and dead cells were quantified using FIJI (Fiji Is Just ImageJ) software for images derived from fluorescent co-culture images. Images from the ImageXpress system were quantified using MetaXpress cytoplasmic/nuclear staining software. The percent of dead tumor cells in each well was quantified, and this percentage was normalized by subtracting baseline death from cancer cell-only wells, NK cell-only wells, or both.

[6] = test system: PC cell lines (LNCap, 22Rv1, DU145, PC3); test: Co-cultures of PC cell lines with NK cells (1:1), immune-mediated PC killing; type: cell-based
Procedure: (§6) Prostate cancer cell lines were dyed with the blue CMAC live-cell dye (Thermo Fisher Scientific #C2110, per manufacturer protocol). Blue-fluorescent cancer cells were plated at a density of 10,000 cells per well of a 48-well plate. NK-92 cells were dyed with green CMFDA (Cayman Chemical Company #19583, per manufacturer protocol). Green-fluorescent NK-92 cells were added to the blue-fluorescent cancer cells at a 1:1 ratio. Enzalutamide (10 μM), darolutamide (20 μM), and 1 μM ethidium homodimer (EthD-1) were added at the same time as the NK cells. After 24 hours of co-culture, images of live cancer cells, live NK cells, and dead cells were taken using a fluorescent microscope. The co-culture experiments were run with internal control conditions and as a single treatment. Normalization was performed after analysis to take baseline death conditions into each experiment run. To optimize the high output of these experiments, a subset of co-cultures were performed using the ImageXpress® Micro Confocal High-Content Imaging. This analysis maintained the experiment conditions, drug concentrations, and the dyeing process. When GFP-labeled tumor cells were used for culture assays, they were added in a 1:1 ratio. Cell adhered over 24 h, and when patient-derived NK cells were added, a control well was trypsinized, and cells resuspended and counted to adjust a 1:1 ratio before treatment addition. The experiments with blocking antibodies were performed using the ImageXpress system. TRAIL blocking ab was purchased from Santa Cruz TRAIL Antibody (RIK-2): sc-56246, and IFN gamma blocking Monoclonal Antibody (NIB42, #6-7318-81) was purchased from Thermo Fisher. The blocking mAb was added when NK cells were combined with tumor cells.
as §5, with “both. A two-way ANOVA was used to calculate the interaction effect between drug treatment and NK cells.” for “both.”
In groups with a significant interaction effect, data was further normalized in the cancer cell+NK cells+drug treatment well by subtracting out death in the cancer cell+drug well. A one-way ANOVA and multiple comparison analysis with subsequent t-tests were used to calculate the statistical significance of the difference between this group and the cancer cell+NK cell well. GraphPad Prism Version 9.5.1 was used for statistical analysis.
We conducted cell viability assays to investigate the effect of Enza and Daro on PC cells (LNCap, 22Rv1 [ARv7 mutation], DU145, PC3 [AR-]) and NK-92 cells. We performed co-culture experiments with PC and NK cells in a 1:1 ratio and analyzed immune cell-mediated tumor cell killing (ImageXpress Confocal HT). Cytokine profiling (Luminex 200) of culture supernatants was performed following treatment with ARi−/+ and anti-IFN-γ antibodies. In vivo studies were performed in NCr Nude mice harboring subcutaneous PC tumors treated orally with Daro (50 mg/kg/bid) and Enza (30 mg/kg/bid) for 4 weeks.
We performed ATP-based (CellTiter-Glo) viability assays to investigate the effect of Enzalutamide and Darolutamide on PC cell lines (LNCap, 22Rv1 [ARv7 mutation], DU145, PC3 [AR-]) and NK-92 cells. We performed co-culture experiments with PC and NK cells at a 1:1 ratio throughout 4 h, 6 h, 12 h, 24 h, and 48 h periods. We analyzed immune cell-mediated tumor cell killing in the presence of Enza and Darolutamide (ImageXpress Confocal HT). Western Blotting was performed to evaluate different protein expression levels and their regulation related to sensitivity in mediating immune-mediated cell killing (apoptotic family). […]

[7] = test system: PC3; test: Co-culture of GFP-expressing PC3 with patient-derived NK cells; type: cell-based, human
Excerpt: (§7) To validate an additive effect of ARi and monalizumab enhancing NK cell cytotoxicity, we performed a co-culture assay with GFP-labeled PCa cell lines (including ARi-sensitive LNCaP and ARi-resistant PC3) and patient-derived NK cells. The NK cells were negatively selected from whole blood from patients with metastatic prostate cancer before initiation of androgen deprivation therapy. The addition of enzalutamide or darolutamide enhanced the cytotoxicity of NK cells, and the combination of ARi with monalizumab potentiated immune killing (FIG. 15C-D).
as §6
(§8) NK cells were isolated from patients harboring metastatic castration-sensitive prostate cancer using the MojoSort™ Human NK Cell Isolation Kit (#480053). Patients signed informed consent for IRB-approved research protocol number 2055-13, allowing the collection of peripheral blood samples. […] The untouched NK cells (CD56+, CD3−) were collected, and the purity of isolation was determined by flow cytometry using anti-CD56 (BioLegend 362503). […]

[8] = test system: LNCaP; test: Co-culture of GFP-expressing LNCaP with patient-derived NK cells; type: cell-based, human
Excerpt: as §7, §6, §8

[9] = test system: 22Rv1; test: Co-culture of 22Rv1 with NK-92 cells, immune-mediated tumor cell killing; type: cell-based; conditions: 22Rv1 + NK-92 1:1, enzalutamide 10 μM, FIG. 15B
Procedure: as §3, §4, §5

Molecule | HLA-E expression [1] [%] | surface expression of HLA-E [2] | HLA-E expression ([2]; non-AR-transduced PC3) [%] | surface expression of NKG2A [3] | surface expression of PD-1 ([3]; MFI) | expression of HLA-E upon DHT treatment with HDACi [4] | NK cell killing of PCa cells (immune enhancement) [5] [%] | immune-mediated NK cell killing of PCa cells (in words) ([6]; co-culture PCa + NK-92 cells) | ARi immune enhancement effect ([6]; co-cultures of PC cell lines and NK cells with Enzalutamide (API), [T] plus monalizumab) [%] | killing of PCa cells by patient-derived NK cells (in words) ([7]; GFP PC3, 1:1, 24 h, monalizumab in combination with enza and daro) | median number of cells in co-culture ([7]; PC3 and NK cells, monalizumab added to darolutamide or enzalutamide, FIG. 3A) | killing of PCa cells by patient-derived NK cells (in words) ([8]; GFP LNCaP, 1:1, 24 h, monalizumab in combination with enza and daro) | median number of cells in co-culture ([8]; LNCaP and NK cells, monalizumab added to darolutamide or enzalutamide, FIG. 3B) | NK cell killing of PCa cells (immune enhancement) [9] [%]
C[C@]12CCC(=O)C[C@@H]1CC[C@@H]1[C@@H]2CC[C@]2(C)[C@@H](O)CC[C@@H]12 [DHT, dihydrotestosterone] | 1.84 | did not alter | 11.28 | reversed | reversed | – | – | – | – | – | – | – | – | –
O=C(CCCCCCC(=O)Nc1ccccc1)NO [vorinostat] | – | did not change | – | – | – | did not change significantly | – | – | – | – | – | – | – | –
B1 | – | – | – | – | – | – | 19.89 | did not enhance | 43.92 | potentiated | decreases | potentiated | decreases | 18.29

Source: patent US20240309090A1, “MODULATION OF ANDROGEN SIGNALING TO INNATE IMMUNE KILLING OF PROSTATE CANCER” (Brown University, priority 2023, published 2024)
